In this series the target is DmCas7-11;DmTPR-CHAT full-length (Desulfonema magnum;Desulfonema magnum, UniProt A0A975GRY4;A0A975BRS1 1-1785;1-822, |). The series is described as follows: cryo-EM; Craspase complex with full TPR-CHAT, 3.2 A; PDB 7ZOL or 7ZOQ (assignment not stated); EMSA: 32.5 mM HEPES-NaOH pH 7.5, 100 mM NaCl, 2.5 mM DTT, 1 U/ul RNase inhibitor, 50 nM RNA, 30 min on ice; no Mg2+ listed. As to conditions: protein: recombinant;recombinant; tags: 6xHis (N-terminal);Twin-Strep (N-terminal); copies: 1;1; single strand. For orientation: In EMSA bound probe runs differently from free probe, usually more slowly.
Sequence of DmCas7-11;DmTPR-CHAT full-length (chain, as listed by the source |, chain 1 of 2): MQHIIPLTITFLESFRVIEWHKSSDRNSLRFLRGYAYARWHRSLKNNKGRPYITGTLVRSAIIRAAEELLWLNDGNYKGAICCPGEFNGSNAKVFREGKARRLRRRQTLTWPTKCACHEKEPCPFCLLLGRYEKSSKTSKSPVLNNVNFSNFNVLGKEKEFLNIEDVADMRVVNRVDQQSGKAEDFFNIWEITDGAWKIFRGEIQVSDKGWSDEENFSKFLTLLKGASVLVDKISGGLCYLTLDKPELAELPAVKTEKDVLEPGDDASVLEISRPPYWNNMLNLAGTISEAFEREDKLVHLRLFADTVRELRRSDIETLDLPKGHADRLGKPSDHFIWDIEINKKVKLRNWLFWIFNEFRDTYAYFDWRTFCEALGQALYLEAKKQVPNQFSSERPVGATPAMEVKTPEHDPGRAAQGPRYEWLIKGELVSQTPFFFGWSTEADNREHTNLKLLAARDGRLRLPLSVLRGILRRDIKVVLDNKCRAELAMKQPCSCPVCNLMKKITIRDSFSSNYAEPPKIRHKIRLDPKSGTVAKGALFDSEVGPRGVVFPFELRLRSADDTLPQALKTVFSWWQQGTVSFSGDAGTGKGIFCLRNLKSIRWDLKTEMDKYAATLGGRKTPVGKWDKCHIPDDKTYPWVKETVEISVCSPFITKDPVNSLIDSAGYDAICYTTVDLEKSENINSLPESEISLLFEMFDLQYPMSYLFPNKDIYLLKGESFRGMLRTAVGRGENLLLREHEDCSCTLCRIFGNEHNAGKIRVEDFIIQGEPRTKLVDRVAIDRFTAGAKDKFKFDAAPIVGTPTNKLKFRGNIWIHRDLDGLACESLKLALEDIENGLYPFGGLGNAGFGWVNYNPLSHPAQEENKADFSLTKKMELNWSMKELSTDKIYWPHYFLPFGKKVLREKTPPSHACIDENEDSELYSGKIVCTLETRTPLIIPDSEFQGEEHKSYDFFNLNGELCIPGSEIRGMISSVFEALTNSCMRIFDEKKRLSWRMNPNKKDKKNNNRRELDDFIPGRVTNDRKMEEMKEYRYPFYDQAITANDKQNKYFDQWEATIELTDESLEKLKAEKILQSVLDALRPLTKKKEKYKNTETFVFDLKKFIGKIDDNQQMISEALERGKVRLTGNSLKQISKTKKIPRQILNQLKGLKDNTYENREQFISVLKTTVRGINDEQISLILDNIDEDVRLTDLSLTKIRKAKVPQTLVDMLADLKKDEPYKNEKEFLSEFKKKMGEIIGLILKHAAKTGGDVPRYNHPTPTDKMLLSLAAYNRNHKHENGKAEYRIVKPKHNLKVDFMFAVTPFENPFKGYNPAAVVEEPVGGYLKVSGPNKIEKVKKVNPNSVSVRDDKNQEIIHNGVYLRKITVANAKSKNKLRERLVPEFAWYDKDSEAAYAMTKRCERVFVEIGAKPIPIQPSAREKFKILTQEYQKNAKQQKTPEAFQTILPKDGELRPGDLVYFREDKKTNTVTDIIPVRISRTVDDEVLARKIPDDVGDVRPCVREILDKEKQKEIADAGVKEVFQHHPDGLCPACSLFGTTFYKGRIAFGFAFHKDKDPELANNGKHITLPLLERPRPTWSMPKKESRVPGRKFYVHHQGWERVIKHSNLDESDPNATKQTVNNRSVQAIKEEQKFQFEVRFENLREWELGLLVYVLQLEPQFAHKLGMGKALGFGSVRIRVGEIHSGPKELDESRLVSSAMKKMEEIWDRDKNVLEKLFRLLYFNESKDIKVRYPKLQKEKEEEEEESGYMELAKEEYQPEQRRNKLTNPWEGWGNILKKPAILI
Sequence of DmCas7-11;DmTPR-CHAT full-length (chain, as listed by the source |, chain 2 of 2): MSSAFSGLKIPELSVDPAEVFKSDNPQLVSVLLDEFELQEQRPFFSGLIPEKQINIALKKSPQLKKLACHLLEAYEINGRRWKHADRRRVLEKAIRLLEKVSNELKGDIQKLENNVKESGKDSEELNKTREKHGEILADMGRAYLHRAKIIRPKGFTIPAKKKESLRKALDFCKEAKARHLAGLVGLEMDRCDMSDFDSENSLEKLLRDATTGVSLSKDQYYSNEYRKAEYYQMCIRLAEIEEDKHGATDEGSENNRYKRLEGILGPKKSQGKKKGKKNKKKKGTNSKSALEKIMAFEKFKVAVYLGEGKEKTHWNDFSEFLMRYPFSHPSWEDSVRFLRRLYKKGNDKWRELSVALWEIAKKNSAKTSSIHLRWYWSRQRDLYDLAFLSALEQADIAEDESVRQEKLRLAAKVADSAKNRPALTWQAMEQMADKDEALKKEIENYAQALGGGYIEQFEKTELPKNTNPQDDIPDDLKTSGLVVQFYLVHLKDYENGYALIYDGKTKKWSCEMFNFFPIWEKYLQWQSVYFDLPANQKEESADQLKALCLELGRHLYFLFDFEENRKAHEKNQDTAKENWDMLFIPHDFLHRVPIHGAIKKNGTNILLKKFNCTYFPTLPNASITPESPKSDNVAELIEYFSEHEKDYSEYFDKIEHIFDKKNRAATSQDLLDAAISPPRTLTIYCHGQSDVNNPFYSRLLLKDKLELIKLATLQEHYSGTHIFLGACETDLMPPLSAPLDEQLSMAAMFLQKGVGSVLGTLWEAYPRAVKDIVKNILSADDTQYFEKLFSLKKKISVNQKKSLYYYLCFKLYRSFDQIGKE

On to UUAUGUGAUGGAACCUCUCCGGAUAAUUCUAUCUCUUCUG (ssRNA) [crRNA (13+ nt 5' handle, spacer C15-G40 modelled)], for which the binding result was “binds”.

The record behind these values is article PMC9935389, “Structural insights into the regulation of Cas7-11 by TPR-CHAT”.
